Measured values as given in patent US12018066 (TRIAD NATIONAL SECURITY, dated 2024).

B1: B10 human minibody (scFv-human Fc) (Fc fusion)
scFv-Fc: QSVVTQPPSVSGAPGQRVTISCTGSSSNIGSRTVNWYQQLPGTAPKLLIYANNQRPSGVPDRFSGSKSGTSASLAISGLQSEDEADYYCAAWDDSLNGYVFGTGTKLTVLSGGSTITSYNVYYTKLSSSGTQVQLQQSGPGLVKPSQTLSLTCAISGDSVSSNSATWNWIRQSPSRGLEWLGRTYYGSKWHSDYAVSVKSRITINPDTSKNQISLHLNPVTPEDTAVYYCARGRSYAFDIWDQGTMVTVSS
B2: B10 minibody (scFv-Fc) (Fc fusion)
chain: QSVVTQPPSVSGAPGQRVTISCTGSSSNIGSRTVNWYQQLPGTAPKLLIYANNQRPSGVPDRFSGSKSGTSASLAISGLQSEDEADYYCAAWDDSLNGYVFGTGTKLTVLSGGSTITSYNVYYTKLSSSGTQVQLQQSGPGLVKPSQTLSLTCAISGDSVSSNSATWNWIRQSPSRGLEWLGRTYYGSKWHSDYAVSVKSRITINPDTSKNQISLHLNPVTPEDTAVYYCARGRSYAFDIWDQGTMVTVSS
B3: R04 IgG1 (antibody, V domains shown)
VH: QVQLQQSGPGLVKSSQTLSLTCAISGDSVSSNGAAWHWIRQSPSRGLEWLGRTYYRSGWYNDYAVSVKSRITINQDTSKNQFSLQLNSVTPEDTAVYFCAREGGGGRMDVWSQGTTVTVSS
VL: EIVMTQSPSSLSASVGDRVTITCQASQDISNYLNWCQQKPGKAPKLLIYDASNLETGVPSRFSGSGSGTGFTFTISSLQPEDFATYYCQQSYSTPYTFGQGTKVEIK
B4: E08 human minibody (scFv-human Fc) (Fc fusion)
scFv-Fc: SYVLTQPPSVSVAPGKTARITCGGNNIGWKSVHWYQQKPGQAPVLVVYDDSDRPSGIPERFSGSNSGNTATLTISRVEAGDEADYYCQVWDSSSDLVVFGGGTKLTVLSGGSTITSYNVYYTKLSSSGTQVQLVQSGAEVKKPGSSVKVSCKASGGTFSSYAISWVRQAPGQGLEWMGGIIPIFGTANYAQKFQGRVTITADESTSTAYMELSSLRSEDTAVYYCARASGRWLQFWHYYGMDVWGQGTTVTVSS
B5: H02 minibody (scFv-Fc) (Fc fusion)
chain: QSVVTQPPSVSAAPGQKVTISCSGSSSNIGNNYVSWYQQLPGTAPKLLIYRDTQRPSGVPDRFSGSKSGTSASLAISGLRSEDEADYYCATWDKSLSGPVFGGGTKVTVLSGGSTITSYNVYYTKLSSSGTQVQLQQSGPGLVKPSQTLSLTCAISGDSVSSNSAAWNWIRQSPSRGLEWLGRTYYRSKWYNDYAVSVKSRIIINPDTSKNQFSLQLNSVTPEDTAVYYCARQDNNPYYGLDVWGQGTTVTVSS
B6: H03 minibody (scFv-Fc) (Fc fusion)
chain: SYELTQPPSVSVAPGQTARITCGGNNIGSKSVHWYQQKPGQAPVLVIYYDSDRPSGIPERFSGSNSGNTATLTISRVEAGDEADYYCQVWDSSSALYVFGTRTKVTVLSGGSTITSYNVYYTKLSSSGTQVQLVESGGGLVQPGRSLRLSCAASGFTFDDYAMHWVRQAPGKGLEWVSGISWNSGSIGYADSVKGRFTISRDNAKNSLYLQVNSLRAEDTAVYYCARELIVGTTSPQTDAFDIWGQGTMVTVSS
B7: R09 minibody (scFv-Fc) (Fc fusion)
chain: QPGLTQPPSVSVSPGQTASITCSGDKLGYKYVSWYQQKPGQSPVLVIYEDTKRPSGIPKRFSGSNSGNTATLTICGTQAVDEADYYCQAWDSSVVFGGGTKLTVLSGGSTITSYNVYDTKLSSSGTQVQLVQSGAEVKKPGASVKVSCKASGYTFTSYGISWVRQAPGQGLEWMGWISAYNGNTNYAQKFQGRVTMTTDTSTSTAYMELRSLRSDDTAVYYCARDMELRPPFDYWGQGTLVTVSS
B8: G07 minibody (scFv-Fc) (Fc fusion)
chain: QSVLIQPPSASGTPGQRVTISCSGSNSNFGSNSVSWYQQRPGTAPKLLIEGNNQRPSGVPERFSGSKSGTSASLAISGLQSEDEAEYSCASWDDSLNAFVFGPGTKLTVLSGGSAITSYNVYYTKLSSSGTQVQLVQSGAEVKKPGESLKISCKGSGYSFTSYWIGWVRQMPGKGLEWMGIIYPGDSDIRYSPSFQGQVTISADKSFSSAYLQWSSLKASDTAMYYCARLGATGAFDIWGQGTTVTVSS
B9: R04 minibody (scFv-Fc) (Fc fusion)
chain: EIVMTQSPSSLSASVGDRVTITCQASQDISNYLNWCQQKPGKAPKLLIYDASNLETGVPSRFSGSGSGTGFTFTISSLQPEDFATYYCQQSYSTPYTFGQGTKVEIKSGGSTITSYNVNYTKLSSSGAQVQLQQSGPGLVKSSQTLSLTCAISGDSVSSNGAAWHWIRQSPSRGLEWLGRTYYRSGWYNDYAVSVKSRITINQDTSKNQFSLQLNSVTPEDTAVYFCAREGGGGRMDVWSQGTTVTVSS
B10: H01 human minibody (scFv-human Fc) (Fc fusion)
scFv-Fc: QPGLTQPPSVSLAPGQTARITCGGNNIGSKSVHWYQQKPGQAPVLVVYDDSDRPSGIPERFSGSNAGNTATLTISRVEAGDEADYYCQVWDSRSDQYVFGTRTKLTVLSGGSTITSYNVYYTKLSSSGAQVTLKESGPVLVKPTETLTLTCTVSGFSLSNARMGVSWIRQPPGKALEWLAHIFSNGEKSYSTSLKSRLTISKDTSKSQVVLTMTNMDPVDTATYYCARTLDYYDSSGYLVGGAFDIWGQGTMVTVSS
B11: D07 human minibody (scFv-human Fc) (Fc fusion)
scFv-Fc: SYELTQPPSVSVAPGETARMTCGGNNIGTKGVHWYQQKPGQAPVLVVYDDSDRPSGIPERFSGSNAGNTATLTISRVEAGDEADYYCQVWDSRSDQYVFGTRTKLTVLSGGSTITSYNVYYTKLSSSGAQVTLKESGPVLVKPTETLTLTCTVSGFSLSNARMGVSWIRQPPGKALEWLAHIFSNGEKSYSTSLKSRLTISKDTSKSQVVLTMTNMDPVDTATYYCARTLDYYDSSGYLVGGAFDIWGQGTMVTVSS
B12: D07 minibody (scFv-Fc) (Fc fusion)
chain: SYELTQPPSVSVAPGETARMTCGGNNIGTKGVHWYQQKPGQAPVLVVYDDSDRPSGIPERFSGSNAGNTATLTISRVEAGDEADYYCQVWDSRSDQYVFGTRTKLTVLSGGSTITSYNVYYTKLSSSGAQVTLKESGPVLVKPTETLTLTCTVSGFSLSNARMGVSWIRQPPGKALEWLAHIFSNGEKSYSTSLKSRLTISKDTSKSQVVLTMTNMDPVDTATYYCARTLDYYDSSGYLVGGAFDIWGQGTMVTVSS
B13: H01 minibody (scFv-Fc) (Fc fusion)
chain: QPGLTQPPSVSLAPGQTARITCGGNNIGSKSVHWYQQKPGQAPVLVVYDDSDRPSGIPERFSGSNAGNTATLTISRVEAGDEADYYCQVWDSRSDQYVFGTRTKLTVLSGGSTITSYNVYYTKLSSSGAQVTLKESGPVLVKPTETLTLTCTVSGFSLSNARMGVSWIRQPPGKALEWLAHIFSNGEKSYSTSLKSRLTISKDTSKSQVVLTMTNMDPVDTATYYCARTLDYYDSSGYLVGGAFDIWGQGTMVTVSS
B14: D04 human minibody (scFv-human Fc) (Fc fusion)
scFv-Fc: SYVLTQPPSVSVAPGKTARITCGGNNIGWKSVHWYQQKPGQAPVLVVYNDNDRPSGVPERFSGSNSGNTATLTISRVVAGDEADYYCQVWDSSSDHVLFGGGTKLTVLSGGSTITSYNVYYTKLSSSGTQVQLVQSGAEVKKPGSSVKVSCKASGGTFSSYAISWVRQAPGQGLEWMGGIIPIFGTANYAQKFQGRVTITADESTSTAYMELSSLRSEDTAVYYCARASGRWLQFWHYYGMDVWGQGTTVTVS
B15: D04 minibody (scFv-Fc) (Fc fusion)
chain: SYVLTQPPSVSVAPGKTARITCGGNNIGWKSVHWYQQKPGQAPVLVVYNDNDRPSGVPERFSGSNSGNTATLTISRVVAGDEADYYCQVWDSSSDHVLFGGGTKLTVLSGGSTITSYNVYYTKLSSSGTQVQLVQSGAEVKKPGSSVKVSCKASGGTFSSYAISWVRQAPGQGLEWMGGIIPIFGTANYAQKFQGRVTITADESTSTAYMELSSLRSEDTAVYYCARASGRWLQFWHYYGMDVWGQGTTVTVS
B16: D10 human minibody (scFv-human Fc) (Fc fusion)
scFv-Fc: QSVVTQPPSASGSPGQTVTISCSGNSANIGGNPVNWYQQLPGTAPKLLIYSNNQRPSGVPDRFSGSKSGISASLAISGLQSEDEADYYCAAWDDSLNGVIFGGGTKLTVLSGGSTITSYNVYYTKLSSSGTQVQLVQSGAEVKKPGESLKISCKGSGYSFTSYWIGWVRQMPGKGLEWMGIIYPGDSDTRYSPSFQGQVTISADKSISTAYLQWSSLKASDTAMYYCARRHSGSYSGAFDIWGQGTMVTVSS
B17: D11 minibody (scFv-Fc) (Fc fusion)
chain: SYELTQPPSVSVAPGQTARITCGGNNIGSKSVHWYQQKPGQAPVLVVYDDSDRPSGIPERFSGSNSGNTATLTISGTQAMDEADYYCQAWDSSTAYVFGSGTKLTVLSGGSTITSYNVYYTKLSSSGTQVQLEESGGGLVQPGGSLRLSCAASGFTFSNYAMSWVRQAPGKGLEWVSAISGSGGATFHADSVKGRFTISRDNSKNTLYLQMNSLRAEDTAVYYCARRVGYDSSGYYWSDAFDIWGQGTMVTVSS
B18: B04 human minibody (scFv-human Fc) (Fc fusion)
scFv-Fc: SYVLTQPPSVSVAPGKTARITCGGNNIGIRSVHWYQQKPGQAPVLVIYYDSDRPSGIPERFSGSKSGNTATLTISRVEAGDEADYYCQVWDSSSDHPVFGGGTKLTVLSGGSTITSYNVYYTKLSSSGTQVQLVESGAEVKKPGASVKVSCKASGYTFTRYYMHWVRQAPGQGLEWMGIINPSGGTTSYAQKFQGRVTMTRDTSTSTVYMELSSLRSEDTAVYYCARSFGELTSFDYWGQGTLVTVSS
B19: B04 minibody (scFv-Fc) (Fc fusion)
chain: SYVLTQPPSVSVAPGKTARITCGGNNIGIRSVHWYQQKPGQAPVLVIYYDSDRPSGIPERFSGSKSGNTATLTISRVEAGDEADYYCQVWDSSSDHPVFGGGTKLTVLSGGSTITSYNVYYTKLSSSGTQVQLVESGAEVKKPGASVKVSCKASGYTFTRYYMHWVRQAPGQGLEWMGIINPSGGTTSYAQKFQGRVTMTRDTSTSTVYMELSSLRSEDTAVYYCARSFGELTSFDYWGQGTLVTVSS

Legend:
[1] = molecular target: SARS-CoV spike protein receptor binding domain (RBD1) (SARS-CoV, UniProt P59594 306-527); assay: ELISA, crude human minibody
[2] = molecular target: T1, SARS-CoV-2 spike protein receptor binding domain (RBD2) (SARS-CoV-2, UniProt P0DTC2 319-537); assay: SPR, immobilized antibody, RBD injected, 1:1 fit
[3] = molecular target: T1, SARS-CoV-2 spike protein receptor …; assay: SPR

Row | Binder | binding result [1] | Kd [2] | Kd [3]
1 | B1 | no binding | – | –
2 | B2 | – | 344 nM | –
3 | B3 | – | 190000 nM | 190000 nM
4 | B4 | binds | – | –
5 | B5 | – | 15.5 nM | –
6 | B6 | – | 117 nM | –
7 | B7 | – | 539 nM | –
8 | B8 | – | – | 63900 nM
9 | B9 | – | 128 nM | 128 nM
10 | B10 | no binding | – | –
11 | B11 | no binding | – | –
12 | B12 | – | 134 nM | –
13 | B13 | – | 281 nM | 281 nM
14 | B14 | no binding | – | –
15 | B15 | – | 124 nM | –
16 | B16 | no binding | – | –
17 | B17 | – | 798 nM | –
18 | B18 | no binding | – | –
19 | B19 | – | 56.8 nM | 56.8 nM
